Reference: PMC8303780, “Mutational Analysis of Redβ Single Strand Annealing Protein: Roles of the 14 Lysine Residues in DNA Binding and Recombination In Vivo”

T1: Redβ K11A K11A (bacteriophage λ) (UniProt P03698)
T1 sequence: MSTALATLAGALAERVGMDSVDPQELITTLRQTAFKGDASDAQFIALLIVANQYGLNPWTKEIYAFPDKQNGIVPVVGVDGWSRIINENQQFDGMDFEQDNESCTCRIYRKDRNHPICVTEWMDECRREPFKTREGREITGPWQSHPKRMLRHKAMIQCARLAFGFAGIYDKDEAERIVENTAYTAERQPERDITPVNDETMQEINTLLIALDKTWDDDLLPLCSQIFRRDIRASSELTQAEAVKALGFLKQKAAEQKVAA

T2: Redβ K258A K258A (bacteriophage λ) (UniProt P03698)
T2 sequence: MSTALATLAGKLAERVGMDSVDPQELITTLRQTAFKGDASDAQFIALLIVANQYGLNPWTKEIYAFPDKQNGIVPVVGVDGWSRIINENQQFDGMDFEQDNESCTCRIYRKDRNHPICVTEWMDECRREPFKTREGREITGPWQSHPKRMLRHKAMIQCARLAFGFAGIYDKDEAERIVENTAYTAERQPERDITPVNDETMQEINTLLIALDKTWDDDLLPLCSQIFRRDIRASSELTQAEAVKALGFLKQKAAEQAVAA

T3: Redβ K253A K253A (bacteriophage λ) (UniProt P03698)
T3 sequence: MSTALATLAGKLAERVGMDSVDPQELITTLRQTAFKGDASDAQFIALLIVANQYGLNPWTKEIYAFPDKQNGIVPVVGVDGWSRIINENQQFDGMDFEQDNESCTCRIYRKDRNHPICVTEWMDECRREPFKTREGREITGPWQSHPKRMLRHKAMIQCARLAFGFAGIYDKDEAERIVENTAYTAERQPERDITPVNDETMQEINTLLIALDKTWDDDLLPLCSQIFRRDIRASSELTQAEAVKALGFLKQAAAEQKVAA

T4: Redβ K251A K251A (bacteriophage λ) (UniProt P03698)
T4 sequence: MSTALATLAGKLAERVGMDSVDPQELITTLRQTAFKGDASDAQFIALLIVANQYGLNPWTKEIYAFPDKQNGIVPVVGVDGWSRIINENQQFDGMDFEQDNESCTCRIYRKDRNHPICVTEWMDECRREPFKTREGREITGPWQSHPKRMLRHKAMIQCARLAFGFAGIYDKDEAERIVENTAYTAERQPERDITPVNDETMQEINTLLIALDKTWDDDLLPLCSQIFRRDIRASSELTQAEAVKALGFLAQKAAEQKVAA

T5: Redβ K214A K214A (bacteriophage λ) (UniProt P03698)
T5 sequence: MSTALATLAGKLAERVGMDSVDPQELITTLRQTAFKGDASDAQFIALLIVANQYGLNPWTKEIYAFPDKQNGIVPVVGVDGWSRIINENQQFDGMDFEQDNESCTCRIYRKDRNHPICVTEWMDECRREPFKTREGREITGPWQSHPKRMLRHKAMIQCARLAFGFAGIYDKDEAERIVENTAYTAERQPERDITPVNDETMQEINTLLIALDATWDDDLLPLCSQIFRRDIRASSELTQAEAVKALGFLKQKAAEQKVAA

T6: Redβ K154A K154A (bacteriophage λ) (UniProt P03698)
T6 sequence: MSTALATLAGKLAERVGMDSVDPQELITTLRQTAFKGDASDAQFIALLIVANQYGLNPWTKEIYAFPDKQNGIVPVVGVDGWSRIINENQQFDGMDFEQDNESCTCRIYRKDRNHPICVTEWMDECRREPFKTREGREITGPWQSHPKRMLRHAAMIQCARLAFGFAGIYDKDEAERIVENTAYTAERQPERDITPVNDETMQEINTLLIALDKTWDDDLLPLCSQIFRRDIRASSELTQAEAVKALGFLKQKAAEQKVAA

T7: Redβ K69A (bacteriophage λ, UniProt P03698 1-261, K69A)
T7 sequence: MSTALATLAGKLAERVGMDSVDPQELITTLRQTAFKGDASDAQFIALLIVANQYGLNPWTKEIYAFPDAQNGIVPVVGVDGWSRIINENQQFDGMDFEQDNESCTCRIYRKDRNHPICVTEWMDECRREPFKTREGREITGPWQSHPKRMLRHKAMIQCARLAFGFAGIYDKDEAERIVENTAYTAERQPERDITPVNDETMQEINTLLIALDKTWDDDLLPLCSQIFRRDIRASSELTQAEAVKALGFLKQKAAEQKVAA

T8: Redβ K214A (bacteriophage λ, UniProt P03698 1-261, K214A)
T8 sequence: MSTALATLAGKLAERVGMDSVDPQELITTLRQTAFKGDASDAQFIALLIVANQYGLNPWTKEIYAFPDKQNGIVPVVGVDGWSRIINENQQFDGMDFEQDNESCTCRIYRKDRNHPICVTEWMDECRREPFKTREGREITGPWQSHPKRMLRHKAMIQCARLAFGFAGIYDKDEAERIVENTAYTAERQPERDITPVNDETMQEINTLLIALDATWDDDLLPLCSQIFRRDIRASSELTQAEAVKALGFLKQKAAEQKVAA

T9: Redβ K154A (bacteriophage λ, UniProt P03698 1-261, K154A)
T9 sequence: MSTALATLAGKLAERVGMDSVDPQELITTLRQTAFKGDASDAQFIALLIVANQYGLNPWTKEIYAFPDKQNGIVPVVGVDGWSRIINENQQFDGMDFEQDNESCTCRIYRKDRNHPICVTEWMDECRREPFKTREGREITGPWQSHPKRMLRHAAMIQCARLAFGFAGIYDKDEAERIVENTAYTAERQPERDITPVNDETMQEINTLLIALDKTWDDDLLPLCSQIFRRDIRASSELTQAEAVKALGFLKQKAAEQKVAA


How the values were obtained:
[1] = target: T1, Redβ K11A K11A (bacteriophage λ); experiment: fluorescence anisotropy; settings: Anisotropy: 50 mM Tris-HCl pH 7.5, 1 mM DTT, 0.1 mg/mL BSA, 10 nM FAM48, 23 °C (Kd per monomer), gel assay: 10 µM Redβ, 50 µM nt of each oligo, PBS, 37 °C
[2] = target: T2, Redβ K258A K258A (bacteriophage λ); experiment: fluorescence anisotropy; settings: Anisotropy: 50 mM Tris-HCl pH 7.5, 1 mM DTT, 0.1 mg/mL BSA, 10 nM FAM48, 23 °C (Kd per monomer), gel assay: 10 µM Redβ, 50 µM nt of each oligo, PBS, 37 °C
[3] = target: T3, Redβ K253A K253A (bacteriophage λ); experiment: fluorescence anisotropy; settings: Anisotropy: 50 mM Tris-HCl pH 7.5, 1 mM DTT, 0.1 mg/mL BSA, 10 nM FAM48, 23 °C (Kd per monomer), gel assay: 10 µM Redβ, 50 µM nt of each oligo, PBS, 37 °C
[4] = target: T4, Redβ K251A K251A (bacteriophage λ); experiment: fluorescence anisotropy; settings: Anisotropy: 50 mM Tris-HCl pH 7.5, 1 mM DTT, 0.1 mg/mL BSA, 10 nM FAM48, 23 °C (Kd per monomer), gel assay: 10 µM Redβ, 50 µM nt of each oligo, PBS, 37 °C
[5] = target: T5, Redβ K214A K214A (bacteriophage λ); experiment: fluorescence anisotropy; settings: Anisotropy: 50 mM Tris-HCl pH 7.5, 1 mM DTT, 0.1 mg/mL BSA, 10 nM FAM48, 23 °C (Kd per monomer), gel assay: 10 µM Redβ, 50 µM nt of each oligo, PBS, 37 °C
[6] = target: T6, Redβ K154A K154A (bacteriophage λ); experiment: fluorescence anisotropy; settings: Anisotropy: 50 mM Tris-HCl pH 7.5, 1 mM DTT, 0.1 mg/mL BSA, 10 nM FAM48, 23 °C (Kd per monomer), gel assay: 10 µM Redβ, 50 µM nt of each oligo, PBS, 37 °C
[7] = target: T7, Redβ K69A; experiment: EMSA; strands added sequentially; Anisotropy: 50 mM Tris-HCl pH 7.5, 1 mM DTT, 0.1 mg/mL BSA, 10 nM FAM48, 23 °C (Kd per monomer); gel assay: 10 µM Redβ, 50 µM nt of each oligo, PBS, 37 °C, 1% agarose at 22 °C; settings: protein: recombinant; tags: 6xHis removed by thrombin; residual N-terminal GSH; label: 5'-Cy3 and 5'-Cy5; complementary 50-mers; annealed by protein
[8] = target: T8, Redβ K214A; experiment: as above; settings: protein: recombinant; tags: 6xHis removed by thrombin; residual N-terminal GSH; label: 5'-Cy3 and 5'-Cy5; complementary 50-mers; annealed by protein
[9] = target: T9, Redβ K154A; experiment: as above; settings: protein: recombinant; tags: 6xHis removed by thrombin; residual N-terminal GSH; label: 5'-Cy3 and 5'-Cy5; complementary 50-mers; annealed by protein

Row | Molecule | Kd [1] [nM] | Kd [2] [nM] | Kd [3] [nM] | Kd [4] [nM] | Kd [5] [nM] | Kd [6] [nM] | binding result [7] | binding result [8] | binding result [9]
1 | FAM48 48-mer ssDNA | 230 | 110 | 210 | 190 | 310 | 2100 | – | – | –
2 | annealed duplex of Cy3 and Cy5 50-mers, strands added sequentially (dsDNA) DNA 1: GCGGATGGCTTAGAGCAGAATCGCCCTGCATAGCTCGATTTTTGCGGATG DNA 2: CCATCCGCAAAAATCGAGCTATGCAGGGCGATTCTGCTCTAAGCCATCCG | – | – | – | – | – | – | binds | binds | no binding
